# Numbering of substitutions follows the chain as printed.
# B1: FJ1427_P035MP03G02 (VHH)
# VHH: EVQLVESGGGLVQPGGSLRLSCAISGGTLDSYGIGWVRQAPGKQREGVSCMSRSDDRTFYADSVKGRFTISKDNAKSTVYLQMTNLKPDDTAVYYCAAVDAYGCSLVQPTTYDFWGLGTQVTVSS
# B2: FJ1427_P035MP03H01 (VHH)
# VHH: QVQLVESGGGSVQTGGSLRLSCVVSGSHFISDVMGWYRQVPGKQRELVADMADGGSAKYADSVKGRFTILRDSVKNTVTLQMSSLNPEDTGVYYCKAGLWITGRHSDYWGQGTQVTVTS
# B3: FJ1427 P035MP03A03 (VHH)
# VHH: B2 VHH with Q1E, A57V, A60G, S106F
# B4: FJ1427_P035MP03A04 (VHH)
# VHH: B2 VHH with Q1E, A57V, A60G, S106F
# B5: FJ1427_P035MP02C12 (VHH)
# VHH: EVQLVESGGGSVQAGGSLRLSCAASGRTFSDYTMGWFRQAPGKEREFVVAITGTGHTTDMPDSVEGRFTISRDNAKNTIYLDMKNLKPGDTAVYYCASARGLPVTPLGDIIYWGEGTLVTVSS
# B6: FJ1427 P035MP02B12 (VHH)
# VHH: QVQLVESGGGLVQAGGSLRLSCAASGRADSNAIMAWFRQAPGKEREFIVAVTYSGMPTYQDDSVQGRFTASRDNAKNTVYLQMNSLKPEDTAVYYCAARMYSASTYYGDYDYWGQGTQVTVSS
# B7: FJ1427_P035MP02D12 (VHH)
# VHH: QVQLVESGGGLVQAGGSLTLSCAASGGAFSSDAKAWFRQAPGKEREFVAAITWAGRGTDYADSVKGRFTITRDNAKATVHLQMNSLKPEDTAVYYCALNPRGVIGPAFRNSNHYTYWGQGTQVTVSS
# B8: FJ1427 P035MP03B01 (VHH)
# VHH: QVQLVESGGGLVQAGGSLRLSCAASGFTFSNYAMSWVRQAPGKGLEWVSSITGFGRGTDYADSVKGRFTISRDNAKNTLYLQMNSLKPEDTAVYYCARYSSSTYYPPTPARGTDYRGQGTQVTVSS
# B9: FJ1427 P035MP03D01 (VHH)
# VHH: B8 VHH with A14P, R19G, S30D, F54A, D59H, R98K, Q118P
# B10: FJ1427_P035MP03F02 (VHH)
# VHH: B8 VHH with A14P, F54A, D59Y, A75D, R98K, S100D, T113I, D114A, Y115D, T120I
# B11: FJ1427_P035MP03G03 (VHH)
# VHH: B8 VHH with A14P, R19G, S30D, F54A, D59H, R98K, Q118P
# B12: FJ1427 P035MP03E01 (VHH)
# VHH: QVQLVESGGGLVQAGGSLRLSCAASGGTFSSYAMGWFRQAPGKEREFVAATTRGGGRTMYAVSTEGRFTCSRDNAKNTVYLLMNSLKPEDTAVYYCAAMTSYYSGTYYPDSSDFDIWGQGTQVTVSS
# B13: FJ1427_P035MP03G01 (VHH)
# VHH: B12 VHH with Q1E, S85R, L86V, M99R, D110A
# B14: FJ1427_P035MP03A02 (VHH)
# VHH: B12 VHH with K76E, L82Q, V93I
# B15: FJ1427_P035MP02E12 (VHH)
# VHH: QVQLQESGGGLVQAGGSMRLSCAASGRTFSNYVIAWFRQAPGKEREFVGAITQTGRGTFYASSVEGRFTLSRLNDQSTVYLQMNSLNPEDTGVYYCSAPRSGRAGTRNQMDYEYWGQGTQVTVSS
# B16: FJ1427 P035MP03D04 (VHH)
# VHH: QVQLVESGGGLVQPGGSLRLSCAASGFTFSNYAMSWVRQAPGKELEWVSSITSAGRGTHYADTVKGRFTISRDNDENTLYLQMNSLEPEDTAVYYCAKYSSATYYPPTPAQGRDYRGQGTQVTVSS
# B17: FJ1427_P035MP03B02 (VHH)
# VHH: EVQLVESGGGLVQVGDSLRLSCAASGRTVGSANMGWFRQAPGKEREFVAVITWSTGSTVYADSVKGRFTISRDNAKNTVYLDMSSLKPDDTAVYYCAADVYPYSGNLNIMDYWGKGTLVTVSS
# B18: FJ1427_P035MP03D03 (VHH)
# VHH: B17 VHH with E1Q, M83L, D89E, L118Q
# B19: FJ1427 P035MP03C02 (VHH)
# VHH: B17 VHH with E1Q, D89E
# B20: FJ1427 P035MP03D02 (VHH)
# VHH: QVQLQESGGGLVQTGGSLRLSCAVSGSRFISDVMGWYRQVPGKQRELVADMADGGSAKYADSVKGRFSILRDSVKNTVYLQMSSLKPEDTGIYYCKAGLWLAGRHSDYWGQGTQVTVSS
# B21: FJ1427 P035MP03B04 (VHH)
# VHH: QVQLVESGGGLVQTGGSLRLSCAASGSQFINDVMGWYRQVPGKQRELVADMDDTGSTKYADSVKGRFTILRDSVKNTAYLQMSNLKPEDTGVYYCKAGLWIKGRHSDYWGQGTQVTVSS
# B22: FJ1427 P035MP02F12 (VHH)
# VHH: QLQLVESGGGLVQTGTSLRLSCAASGHTSRINAMGWFRQFPGKEREFVAAISRNGGSTVYVDSVKGRFTISRDNAKSTVYLQMNSLKPEDTAVYYCTATDAVGWTTRWMTADFGFWGQGTQVTVSS
# B23: FJ1427 P035MP03C04 (VHH)
# VHH: EVQLVESGGGLVQAGASLELSCAASGGTFSSYAMGWFRQAPGKEREFVAATTRGGGRTMYAVSTEGRFSCSRDNAKNTVNLLIKNLKPEDTAVYYCAARTSYYDGTYYPASSDFDIWGQGTQVTVSS
# B24: FJ1427_P035MP03E02 (VHH)
# VHH: QVQLVESGGGLVQVGGSLSVSCAASGRSFDSITMAYFRQAPGNEREFIAGINFSGSRTAYGDSVKGRFTISRDNAKNTVFLQMNSLNPEDTAVYYCAASPRGFYGPGHALYDYWGQGTQVTVSS
# B25: FJ1427_P035MP03F01 (VHH)
# VHH: QVQLVESGGGLVQVGGSLRVSCAASGRTSGDRNMGWFRQAPGKEREFVGIITWSSGSTVYADSVKGRFTISRDNAKNTVYLDMSSLKPEDTAVYYCAADYYPYSGSWNIMDYWGKGTLVTVSS
# Target: T1, mouse IL-2Rβ (mouse) (UniProt P16297)
# T1 sequence (looked up): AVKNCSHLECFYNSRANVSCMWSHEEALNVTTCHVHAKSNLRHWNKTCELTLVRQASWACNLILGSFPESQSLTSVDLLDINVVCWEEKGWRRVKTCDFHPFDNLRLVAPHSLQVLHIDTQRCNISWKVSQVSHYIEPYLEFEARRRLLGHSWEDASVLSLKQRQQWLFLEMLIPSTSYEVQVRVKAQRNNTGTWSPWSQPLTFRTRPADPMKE
# Assay: P.E. binding ELISA on coated protein
row,Binder,P.E. binding ELISA OD
1,B1,0.049 OD450 nm
2,B2,0.051 OD450 nm
3,B3,0.05 OD450 nm
4,B4,0.051 OD450 nm
5,B5,0.047 OD450 nm
6,B6,0.048 OD450 nm
7,B7,0.046 OD450 nm
8,B8,0.05 OD450 nm
9,B9,0.048 OD450 nm
10,B10,0.049 OD450 nm
11,B11,0.05 OD450 nm
12,B12,0.049 OD450 nm
13,B13,0.049 OD450 nm
14,B14,0.052 OD450 nm
15,B15,0.048 OD450 nm
16,B16,0.048 OD450 nm
17,B17,0.068 OD450 nm
18,B18,0.048 OD450 nm
19,B19,0.048 OD450 nm
20,B20,0.048 OD450 nm
21,B21,0.048 OD450 nm
22,B22,0.048 OD450 nm
23,B23,0.048 OD450 nm
24,B24,0.05 OD450 nm
25,B25,0.049 OD450 nm
